From the supplement of paper PMC9732359
± gives the uncertainty stated by the source.

Experiment: protein stability index of a GFP-peptide fusion (yeast GPS) (PSI 1-4); higher = more stable; sorted into four equal gates, so the index is relative within each strain
Outline: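 The protein stability index combines read frequencies across sorting gates, each weighted by its gate number and then summed. To obtain those frequencies, a pooled yeast library of GFP fusions to tiled 17-residue yeast protein peptides, on a plasmid also expressing Cherry, was grown to mid-log phase in leucine-free medium. The cells were sorted into four equal gates by GFP/Cherry ratio before plasmid amplification by PCR and Illumina sequencing.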

Row | Sequence | protein stability index (pdr5∆) | protein stability index (san1∆) | protein stability index (ubr1∆) | protein stability index (doa10∆)
1 | IEEAKSIRRQDYINELS [REC8] | 3.11 ± 0.22 | 3.39 ± 0.16 | 3.14 ± 0.17 | 
2 | DGKEDVEKGTPLGKILL [SME1] | 3.44 ± 0.09 | 3.53 ± 0.053 | 3.56 ± 0.075 | 3.57 ± 0.071
3 | AKPDEKKNDEVSKPAFS [YJL041W/NSP1] | 3.11 ± 0.19 | 2.94 ± 0.29 | 3.2 ± 0.14 | 
4 | GNAKESKALLREISNFS [SRP72] | 2.94 ± 0.13 | 2.7 ± 0.14 | 3.01 ± 0.15 | 2.97 ± 0.17
5 | KHLWDQKSLAALKKSRS [RPC17] | 2.97 ± 0.072 | 2.92 ± 0.083 | 2.81 ± 0.07 | 2.75 ± 0.12
6 | RVVVPQALRVLRLKPGR [RPL16B] | 1.58 ± 0.06 | 1.36 ± 0.12 | 1.77 ± 0.1 | 1.24 ± 0.087
7 | FVHYGEIKNDFIMVKGC [RPL3] | 2.14 ± 0.067 | 2.1 ± 0.1 | 2.38 ± 0.076 | 2.06 ± 0.094
8 | DIQLKNLFPLKPKMLPI [SRP68] | 2.66 ± 0.057 | 2.4 ± 0.058 | 2.46 ± 0.073 | 2.78 ± 0.077
9 | TTYSVDDYYKEIIGGGS [ISW2] | 3.02 ± 0.13 | 3.19 ± 0.088 | 3.33 ± 0.13 | 3.32 ± 0.1
10 | EEQLDALECRLASAIAS [CSN12] | 2.02 ± 0.15 | 2.38 ± 0.12 | 1.81 ± 0.088 | 
11 | VMSIESLVEVVFYRGMT [FAS1] | 2.12 ± 0.06 | 1.39 ± 0.12 | 2.66 ± 0.097 | 1.89 ± 0.1
12 | FNKEQLNKFKKAIFQFV [ECM29] | 1.27 ± 0.096 |  | 1.15 ± 0.069 | 1.58 ± 0.15
13 | KTKLWGFKWLNKLDEYH [LIN1] |  |  | 3.22 ± 0.2 | 
14 | NNNNAPIIIYGTENTER [YOR098C/NUP1] | 2.69 ± 0.06 | 2.83 ± 0.045 | 2.74 ± 0.039 | 2.62 ± 0.054
15 | KISFNLRLKLFLYEILS [SRB8] | 1.26 ± 0.063 | 1.24 ± 0.092 | 1.17 ± 0.048 | 1.22 ± 0.066
16 | GLRNQNMVRNNNNNTID [GRR1] | 2.86 ± 0.071 | 2.83 ± 0.057 | 2.96 ± 0.038 | 2.75 ± 0.063
17 | FDALRSLDDNSTSLEKQ [YJL041W/NSP1] | 3.03 ± 0.11 | 3 ± 0.062 | 3.02 ± 0.066 | 2.99 ± 0.086
18 | AGVQGSKVSKQQAKGAF [RPL24B] | 3.21 ± 0.11 | 3.19 ± 0.055 | 3.21 ± 0.081 | 3.08 ± 0.15
19 | SEKLITKYFEPTSTENN [ECM29] | 3.09 ± 0.066 | 3.04 ± 0.035 | 2.97 ± 0.041 | 2.87 ± 0.076
20 | AFLALVDAGIALNSMCA [RRP46] | 2.69 ± 0.11 | 1.7 ± 0.08 | 2.59 ± 0.076 | 2.27 ± 0.096
21 | IQELRKLLKSLLLNYLE [MED7] | 1.24 ± 0.069 | 1.12 ± 0.12 | 1.04 ± 0.1 | 1.71 ± 0.056
22 | NTPLVGAAFKVISNLVP [YJL039C/NUP192] | 2.08 ± 0.095 | 2.73 ± 0.16 | 2.47 ± 0.1 | 1.96 ± 0.081
23 | ENYEGKQDKTLQKVENQ [YIL149C/MLP2] | 3.29 ± 0.14 | 2.8 ± 0.17 | 3.21 ± 0.21 | 3.2 ± 0.18
24 | EEEMAPYYKYLCEEYLV [RPN7] | 2.74 ± 0.11 | 2.5 ± 0.14 | 2.64 ± 0.093 | 2.12 ± 0.087
25 | GGLSGEESIKIYPLIKP [UBP6] | 2.68 ± 0.076 | 1.88 ± 0.15 | 2.16 ± 0.09 | 2.48 ± 0.12
26 | KQVQDFEENDHPNRVLE [COR1] | 3.29 ± 0.1 | 3.19 ± 0.056 | 2.9 ± 0.065 | 3.1 ± 0.074
27 | ADVLVDRVVSSDSLDIA [SRP72] | 1.58 ± 0.072 | 1.42 ± 0.12 | 1.81 ± 0.081 | 1.95 ± 0.056
